The values that follow come from patent US20060008878A1 (UNIVERSITY OF CHICAGO, published 2006).

This data set deals with the molecule itself. In words: nondenaturing SDS-PAGE or size exclusion chromatography (self-association).

Protocol: For nondenaturing SDS-PAGE, one μg of each purified DsRed variant or wild-type DsRed was mixed with SDS-containing sample buffer on ice and immediately electrophoresed at 4° C. in a 10% polyacrylamide gel, followed by staining with Coomassie Blue. Additional aliquots of wild-type DsRed and DsRed variants were denatured by boiling prior to electrophoresis.

B1: DsRed.M1 (other)
chain: MDNTEDVIKEFMQFKVRMEGSVNGHYFEIEGEGEGKPYEGTQTAKLQVTKGGPLPFAWDILSPQFQYGSKAYVKHPADIPDYMKLSFPEGFTWERSMNFEDGGVVEVQQDSSLQDGTFIYKVKFKGVNFPADGPVMQKKTAGWEPSTEKLYPQDGVLKGEISHALKLKDGGHYTCDFKTVYKAKKPVQLPGNHYVDSKLDITNHNEDYTVVEQYEHAEARHSGSQ
notes: Purified protein tested for its oligomeric state; also called monomeric DsRed variant; red fluorescent DsRed monomer
Take B1: the binding result is recorded as “no binding”.
